Source: PMC3017832, “Molecular analysis of phosphomannomutase (PMM) genes reveals a unique PMM duplication event in diverse Triticeae species and the main PMM isozymes in bread wheat tissues” (BMC Plant Biology, 2010)

Assays:
Test in all cases: spectrophotometric PMM assay (as in earlier work)
Format in all cases: biochemical, Triticum aestivum
Conditions in all cases: average of three experiments; temperature and pH not given
[1] = substrate: O=P(O)(O)O[C@H]1O[C@H](CO)[C@@H](O)[C@H](O)[C@@H]1O
Excerpt: spectrophotometric PMM assay (as in earlier work) on TaPMM-D2 | The average Km (mM, mannose-1-phosphate) values calculated for recombinant A1, D1 and D2 proteins

[2] = substrate: O=P(O)(O)O[C@H]1O[C@H](CO)[C@@H](O)[C@H](O)[C@@H]1O; remark: listed apart in the source
Excerpt: spectrophotometric PMM assay (as in earlier work) on TaPMM-A1 | The average Km (mM, mannose-1-phosphate) values calculated for recombinant A1, D1 and D2 proteins

[3] = substrate: O=P(O)(O)O[C@H]1O[C@H](CO)[C@@H](O)[C@H](O)[C@@H]1O; remark: listed apart in the source
Excerpt: spectrophotometric PMM assay (as in earlier work) on TaPMM-D1 | The average Km (mM, mannose-1-phosphate) values calculated for recombinant A1, D1 and D2 proteins

B1: TaPMM-D2 (Triticum aestivum) (protein)
chain: MVASAARKNAGVLALFDVDGTLTAPRKEVTPEMLEFMKRLRENVTVGVVGGSDLVKISEQLGKSVITDYDYVFSENGLVAHKDGKLIGTQSLKTYLGDDQLKEFINFTLHYIADLDIPIKRGTFIEFRSGMINVSPIGRNCSQEERDDFEKYDKVHNVRPKMVSMLREKFAHLNLTFSIGGQISFDVFPHGWDKTYCLRYLDEFKEIHFFGDKTYKGGNDHEIFESDRTVGHTVTSPDDTVQQCRSIFLSK
With B1 as the protein, how does the Km [1] read?
Its Km is 480 ± 20 µM.

B2: TaPMM-A1 (Triticum aestivum) (protein)
chain: MAAARKDAGVLALFDVDGTLTAPRKEVTPEMLEFMKRLRENVTVGVVGGSDLVKISEQLGKSVITDYDYVFSENGLVAHKDGKLIGTQSLKTYLGDDQLKEFINFTLHYIADLDIPIKRGTFIEFRSGMINVSPIGRNCSQEERDDFEKYDKVHNVRPKMVSVLREKFAHLNLTFSIGGQISFDVFPQGWDKTYCLRYLEEFKEIHFFGDKTYKGGNDHEIFESDRTVGHTVTSPNDTVQQCKSIFLSE
With B2 as the protein, how does the Km [2] read?
Its Km is 460 ± 20 µM.

B3: TaPMM-D1 (Triticum aestivum) (protein)
chain: MAAAAAARKTAGVLALFDVDGTLTAPRKEVTPEMLEFMKRLRENVTVGVVGGSDLVKISEQLGKSVITDYDYVFSENGLVAHKDGKLIGTQSLKTYLGDDQLKEFINFTLHYIADLDIPIKRGTFIEFRSGMINVSPIGRNCSQEERDDFEKYDKVHNVRPKMVSVLREKFAHLNLTFSIGGQISFDVFPQGWDKTYCLRYLEEFKEIHFFGDKTYKGGNDHEIFESERTVGHTVTSPNDTVQQCKSIFLSE
For B3, which Km [3] is on record?
The Km was 400 ± 20 µM.
